According to PMC8765631:

Experiments:
[1] = biological target: VgrG1 from Pseudomonas protegens (Pseudomonas protegens Pf-5); assay: cryo-EM structure
[2] = biological target: RhsA_(ΔTMD) (RhsA lacking its N-terminal prePAAR motif and TMD, residues 74-1486) (Pseudomonas protegens Pf-5); assay: cryo-EM structure; purified RhsA_(ΔTMD) at 4 mg/ml in 20 mM Tris-HCl pH 8.0, 150 mM NaCl; single particle analysis with C2 symmetry, 3.3 Å

stoichiometry N [1]	Substance	stoichiometry N [2]
3	VgrG1 from Pseudomonas protegens (natural protein)	
	RhsA_(ΔTMD) (RhsA lacking its N-terminal prePAAR motif and TMD, residues 74-1486) (domain or fragment)	2
